Experiment [1] addresses T1, P9bHq.
T1 chain: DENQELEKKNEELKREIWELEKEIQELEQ
Kind of experiment: two-hybrid library CCNG1.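 Also: natural log of median RNA to DNA barcode read ratio; higher means stronger binding.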

Experiment [2] has as its target T2, P1bHq.
T2 chain: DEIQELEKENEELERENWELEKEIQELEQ
Kind of experiment: two-hybrid library CCNG1.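 Also: natural log of median RNA to DNA barcode read ratio; higher means stronger binding.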

Experiment [3] addresses T3, P7bHq.
T3 chain: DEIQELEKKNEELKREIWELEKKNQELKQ
In words: two-hybrid library CCNG1.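 Also: natural log of median RNA to DNA barcode read ratio; higher means stronger binding.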

For experiment [4], the target named is T4, P4bHq.
T4 chain: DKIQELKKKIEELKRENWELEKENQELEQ
In words: two-hybrid library CCNG1.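 Also: natural log of median RNA to DNA barcode read ratio; higher means stronger binding.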

In experiment [5] the target is T5, P3bHq.
T5 chain: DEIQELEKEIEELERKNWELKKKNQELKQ
Kind of experiment: two-hybrid library CCNG1.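 Also: natural log of median RNA to DNA barcode read ratio; higher means stronger binding.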

In experiment [6] the target is T6, P8bHq.
T6 chain: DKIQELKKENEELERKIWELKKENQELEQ
In words: two-hybrid library CCNG1.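 Also: natural log of median RNA to DNA barcode read ratio; higher means stronger binding.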

The target in experiment [7] is T7, P2bHq.
T7 chain: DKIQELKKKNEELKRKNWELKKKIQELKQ
Kind of experiment: two-hybrid library CCNG1.

In experiment [8] the target is T8, P5bHq.
T8 chain: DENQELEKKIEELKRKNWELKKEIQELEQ
In words: two-hybrid library CCNG1.

Experiment [9] addresses T9, P6bHq.
T9 chain: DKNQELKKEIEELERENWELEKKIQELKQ
In words: two-hybrid library CCNG1.

Experiment [10] concerns the target T10, P6SC2.
T10 chain: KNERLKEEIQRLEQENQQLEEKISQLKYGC
In words: two-hybrid library CC1. The settings on record: mean of both orientations.

For experiment [11], the target named is T11, P4mS.
T11 chain: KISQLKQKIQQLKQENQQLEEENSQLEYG
Kind of experiment: two-hybrid library CC1. Conditions: mean of both orientations.

Experiment [12] addresses T12, P7mS.
T12 chain: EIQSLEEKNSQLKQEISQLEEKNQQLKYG
In words: two-hybrid library CC1. The settings on record: mean of both orientations.

For experiment [13], the target named is T13, P6.
T13 chain: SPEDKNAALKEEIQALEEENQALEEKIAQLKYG
Kind of experiment: two-hybrid library CC1. The settings on record: mean of both orientations.

Experiment [14] has as its target T14, P5SC1.
T14 chain: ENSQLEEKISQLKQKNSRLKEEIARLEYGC
In words: two-hybrid library CC1. The settings on record: mean of both orientations.

Experiment [15] has as its target T15, P3mS.
T15 chain: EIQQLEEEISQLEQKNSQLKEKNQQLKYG
In words: two-hybrid library CC1. The settings on record: mean of both orientations.

Experiment [16] concerns the target T16, P5mS.
T16 chain: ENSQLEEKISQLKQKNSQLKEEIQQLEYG
In words: two-hybrid library CC1. The settings on record: mean of both orientations.

For experiment [17], the target named is T17, P9.
T17 chain: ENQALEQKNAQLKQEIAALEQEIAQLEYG
In words: two-hybrid library CC1. Conditions: mean of both orientations.

Experiment [18] concerns the target T18, P6mS.
T18 chain: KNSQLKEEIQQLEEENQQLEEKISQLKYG
Kind of experiment: two-hybrid library CC1. Conditions: mean of both orientations.

For experiment [19], the target named is T19, P5SC2.
T19 chain: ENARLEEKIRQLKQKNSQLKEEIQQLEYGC
In words: two-hybrid library CC1. Conditions: mean of both orientations.

Experiment [20] addresses T20, P5.
T20 chain: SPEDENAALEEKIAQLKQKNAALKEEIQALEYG
In words: two-hybrid library CC1. The settings on record: mean of both orientations.

Experiment [21] addresses T21, P4.
T21 chain: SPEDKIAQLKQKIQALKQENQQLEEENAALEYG
In words: two-hybrid library CC1. The settings on record: mean of both orientations.

In experiment [22] the target is T22, P8mS.
T22 chain: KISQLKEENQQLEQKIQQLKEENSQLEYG
In words: two-hybrid library CC1. Conditions: mean of both orientations.

Experiment [23] addresses T23, P6SC1.
T23 chain: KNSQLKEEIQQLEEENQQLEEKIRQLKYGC
Kind of experiment: two-hybrid library CC1. Conditions: mean of both orientations.

The target in experiment [24] is T24, P8.
T24 chain: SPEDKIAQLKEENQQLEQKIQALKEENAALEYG
Kind of experiment: two-hybrid library CC1. Conditions: mean of both orientations.

The target in experiment [25] is T25, P7.
T25 chain: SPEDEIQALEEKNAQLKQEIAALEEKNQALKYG
In words: two-hybrid library CC1. Conditions: mean of both orientations.

Experiment [26] concerns the target T26, P3.
T26 chain: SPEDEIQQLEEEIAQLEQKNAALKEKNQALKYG
In words: two-hybrid library CC1.

Experiment [27] deals with T27, 4H2473-bA.
T27 chain: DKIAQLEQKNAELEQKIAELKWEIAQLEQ
In words: two-hybrid library CCNG1.

Experiment [28] addresses T28, 4H2717-bA.
T28 chain: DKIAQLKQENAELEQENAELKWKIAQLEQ
Kind of experiment: two-hybrid library CCNG1.

Experiment [29] addresses T29, 4H40-bA.
T29 chain: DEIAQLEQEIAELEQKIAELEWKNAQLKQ
Kind of experiment: two-hybrid library CCNG1.

The target in experiment [30] is T30, 4H2588-bA.
T30 chain: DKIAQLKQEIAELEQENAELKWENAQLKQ
Kind of experiment: two-hybrid library CCNG1.

The target of experiment [31] is T31, 4H2692-bA.
T31 chain: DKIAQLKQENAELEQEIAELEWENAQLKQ
Kind of experiment: two-hybrid library CCNG1.

The target in experiment [32] is T32, 4H2915-bA.
T32 chain: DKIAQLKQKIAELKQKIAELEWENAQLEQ
In words: two-hybrid library CCNG1.

In experiment [33] the target is T33, 4H3277-bA.
T33 chain: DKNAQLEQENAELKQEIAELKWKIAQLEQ
Kind of experiment: two-hybrid library CCNG1.

In experiment [34] the target is T34, 4H2839-bA.
T34 chain: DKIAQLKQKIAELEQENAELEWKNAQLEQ
In words: two-hybrid library CCNG1.

For experiment [35], the target named is T35, 4H3057-bA.
T35 chain: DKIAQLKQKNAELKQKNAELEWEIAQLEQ
Kind of experiment: two-hybrid library CCNG1.

Experiment [36] deals with T36, 4H741-bA.
T36 chain: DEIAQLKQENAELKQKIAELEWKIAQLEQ
Kind of experiment: two-hybrid library CCNG1.

In experiment [37] the target is T37, 4H319-bA.
T37 chain: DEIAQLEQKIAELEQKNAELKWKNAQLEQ
In words: two-hybrid library CCNG1.

For experiment [38], the target named is T38, 4H348-bA.
T38 chain: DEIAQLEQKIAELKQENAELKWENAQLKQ
In words: two-hybrid library CCNG1.

Experiment [39] addresses T39, P11A-bS.
T39 chain: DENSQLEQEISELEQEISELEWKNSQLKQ
Kind of experiment: two-hybrid library CCNG1.

Experiment [40] concerns the target T40, 4H477-bA.
T40 chain: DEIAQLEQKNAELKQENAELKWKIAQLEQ
Kind of experiment: two-hybrid library CCNG1.

The target of experiment [41] is T41, 4H492-bA.
T41 chain: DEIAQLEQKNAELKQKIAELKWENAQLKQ
Kind of experiment: two-hybrid library CCNG1.

Experiment [42] has as its target T42, 4H2503-bA.
T42 chain: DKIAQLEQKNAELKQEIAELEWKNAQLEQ
Kind of experiment: two-hybrid library CCNG1.

Take DEIQELEKENEELERENWELEKEIQELEQ [P1bHq]: the interaction score in experiment [1] was -1.78; in experiment [2], -0.606; in [3], -0.288; in experiment [4] it was -0.52; in experiment [5], -1.03; in experiment [6], -0.272. Besides, the interaction score in [7] was 1.87; in [8], -0.887; in [9], -0.273.

On to SPEDEIQQLEEEIAQLEQKNAALKEKNQALKYG [P3], for which the interaction score in experiment [10] was -2.04; in [11] it was 0.336; in experiment [12], -2.58; in experiment [13], -2.59; in experiment [14], -2.58; in [15], -2.89. Further, the interaction score in experiment [16] was -2.66; in experiment [17] it was -2.09; in experiment [18] it was -2.79; in experiment [19] it was -2.4; in experiment [20], -2.66; in experiment [21], 0.154. The interaction score is -2.7 in experiment [22]; -2.57 in experiment [23]; -2.6 in experiment [24]; -2.61 in experiment [25]; -2.65 in experiment [26].

With DKIAQLEQKNAELEQKIAELKWEIAQLEQ [4H2473-bA], the interaction score in experiment [27] is 0.144; in experiment [28], -0.42; in experiment [29], -0.325; in experiment [30], -1.02; in experiment [31] it was 0.426; in experiment [32], 0.904. The interaction score was -1.53 in experiment [33]; -0.648 in experiment [34]; 0.511 in experiment [35]; -1.42 in experiment [36]; -0.981 in experiment [37]; -1.44 in experiment [38]. Besides, the interaction score in experiment [39] is -0.676; in experiment [40], -0.946; in experiment [41], -1.09; in experiment [42] it was 0.82.

Values taken from PMC10397247.
